Experimental findings from US20030148973A1, “MAGE-A1 peptides for treating or preventing cancer” (priority 2001, published 2003) are described below.

The test addresses HLA-A0201 molecules on the surface of T2 cells. Briefly: T2 cell HLA-A0201 stabilization; 20 µg peptide on 10^6 acid-stripped T2 cells, BB7.2 staining, flow cytometry. To be noted: remark: other sources report otherwise. For orientation: A flow cytometer gives signals particle by particle.

Molecule CLGLSYDGL [MAGE-A1 174] returned a Fluorescence Index (FI) of 1.73 FI.
